Assay results: US20050058747

What was measured:
[1] = target: Soybean beta-conglycinin
[2] = target: Soybean glycinin
[3] = target: T1, soybean Kunitz trypsin inhibitor, P01070
T1 chain: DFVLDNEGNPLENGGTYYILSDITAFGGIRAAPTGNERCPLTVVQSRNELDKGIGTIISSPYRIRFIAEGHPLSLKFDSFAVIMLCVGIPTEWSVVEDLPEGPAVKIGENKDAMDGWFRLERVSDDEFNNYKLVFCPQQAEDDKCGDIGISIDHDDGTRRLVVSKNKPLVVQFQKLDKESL

[4] = target: T2, soybean Bowman-Birk inhibitor, P01055
T2 chain: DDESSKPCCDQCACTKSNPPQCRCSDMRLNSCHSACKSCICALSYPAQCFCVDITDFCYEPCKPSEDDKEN

[5] = target: Soybean agglutinin (SBA), P05046
Sequence of Soybean agglutinin (SBA), P05046 (P05046 33-285): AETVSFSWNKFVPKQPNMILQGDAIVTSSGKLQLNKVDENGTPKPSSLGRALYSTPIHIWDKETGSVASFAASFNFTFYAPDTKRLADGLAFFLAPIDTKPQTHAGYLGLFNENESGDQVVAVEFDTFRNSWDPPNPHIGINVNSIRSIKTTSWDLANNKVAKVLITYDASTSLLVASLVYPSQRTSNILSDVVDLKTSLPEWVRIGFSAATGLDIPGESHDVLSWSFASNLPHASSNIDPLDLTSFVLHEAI

B1: protease of the invention having amino acids 1-188 of SEQ ID NO: 2 (protease derived from Nocardiopsis dassonvillei subsp. dassonvillei DSM 43235) (protein)
chain: ADIIGGLAYYMGGRCSVGFAATNSAGQPGFVTAGHCGTVGTGVTIGNGTGTFQNSVFPGNDAAFVRGTSNFTLTNLVSRYNSGGYQSVTGTSQAPAGSAVCRSGSTTGWHCGTIQARNQTVRYPQGTVYSLTRTNVCAEPGDSGGSFISGSQAQGVTSGGSGNCSVGGTTYYQEVTPMINSWGVRIRT
Which Percentage degradation of isolated soy proteins [1] does the source give for B1 here?
The Percentage degradation of isolated soy proteins was 100%.

And the Percentage degradation of isolated soy proteins [2]?
Its Percentage degradation of isolated soy proteins is 100%.

What about the Percentage degradation of isolated soy proteins [3] of the same protein?
Its Percentage degradation of isolated soy proteins is 97%.

And the Percentage degradation of isolated soy proteins [4]?
Its Percentage degradation of isolated soy proteins is 81%.

And the Percentage degradation of isolated soy proteins [5]?
Its Percentage degradation of isolated soy proteins is 95%.
